# Assay results: a protein production outcome set (Wang et al. 2014)
# Assay: label from the status in PepcDB records
row,Sequence,protein production
1,MKQKLLYLCLFVTLAVVGHSYIIYRFIHDGVLFTGPNDGMEQMVPIQMYLFDNWHHGNFFYASDFGLGGDFFSDLSYYFSTNIIFIINVIVIVLLKTFITLDTTHIMFWMTNALIVSIFKSAIAMLATYLYVRYIALNKKIAVLAAFIFVISPIYFRFTVYWPFFSDVFIWLPLLLWSIERFLKSGKIGFFIIIVAITLINNFYFAYYQLLTGLIYLTIRLVFRHQADIIPRFKSFMSLFIASVIGLGCSLPFFFPAIQSFFNNRRTPFDGNVDLFEPFNQNTNVFYDNYLIVILFITGQALLSFKLYKHYYFKLFAISTLILICASFVPFIDQIFNGFSAPQKRWHYLIAFNSAVLIGLYVKYFRTISIPNYIFSSVISLSIIGLSAWYYDDVVAWVWFAPIVSLIGFLILLINESHIKLKLTHLFVLSIMILTVLVSTVFIRNQIYFEDHVKRANAYFVNASLFNTPLQQQLVKDMNTHKLEDERIDWRVNEQDNTPMYQQFKGLSIYSSIFDHHILDFYYDELKINMQEESVSRYQSTNGRQNMSSLFSIKYLMVKRYQHNIPAYFKKIKNDGQYEIYENTLNLPSVRVSNKKYNSNDLHNPIDKEHAMMDGVILNNKGASYTAKAPNLLNQTRITYKDIDNKRNHQIHASKNDSHVQIHIPKHLRQRYHDFYLTIKVKRGLPDSNFSVQINNYTNNRLYNNSTYRTGVDTQLYRTQPDKNGNINVGLSPTGNYYLDIQSLHGENYNHLKSAYAKQNNDGHYTDIKNGVKVKLGPHEKGIATINIPYREGMTAYVDNKKIKPLNVNYMMTGVPVSKDSKEIIIKYRPKYWYTVTAISIIFIIGSLSWFMRKRYKNK,failed
2,MKQLSFNKLYFEGIKDAIPISIGYLPIGMAFGVLAKSMGIPYEISILMSLIIFAGASQFVGVNLIAIGTSSFEIVLTTFILNLRHFLMSSSLSQRIDYTKSKKFLSLISFGVTDETFAVASLKEELKLSPEFLFGLNFTAFFAWNFGTVLGIFLAESIPKEIQSSMGISLYVMFIGLLIPAVRRSTKVLKIFLVAVFISSALTWVPVFKFISTGWIIIITTIVASFIGAKFIHGDGDE,failed
3,MKQNQYLFLLFTLIVLTGCGGTQKKLTEYVNPFLGTATLWEPEDLGYTRKIKSRTWGAETYPGATLPNAMVQLSPVTQFRSGAGYQYEDTVIYGFSHTAKGHWNLLHVPMLPVVGTIAPGNYCSGFSHEKESAHPGYYQVYLERYKVNAELTSTLRCAYHKYTFAKGDDKSLLVDIRRSNNDVRDWKIEKVDDNTFTGYQDGDGKIYFYAKTNYKIGQVEMVKDDKHEVAVLRFIDSKGVEPLEVKAGFSFVSIENAQMNLKAEMLNKSFAQVAEEADAAWEALLSKIQVAGGTEREKRLFYSTFFHAFKWPALRSDVNHEYTDVRGEVVNNGFHYYTDPSFWDDYRNKLVLIGMISPDVTTDIIRSIIDKGEKRDGYMPTFFHGDHASTFISGSWLRGLHDFDLERAYKLILKNATVPGKGGRRYLDEYMERGWIAEKDTVNVPTWDEYKGAVTKTQEYAYDDYAVALVAKELGDEANYKLMMERSNNYKTLFDPSTGFWRGKIDDGSWIQDFDPYYPYYQYMYREANAWNALFFAPHDPEGMIKLYPSKEAVEAKLDSLFSEPWRGYEAHNLTGFIGNYCHGNQPGHSIPYTYYFIDKQEKAQCILDSLMNHYYDMGADKLAYAGMDDAGEMSSWYVLNAIGLYTYSPADPEYIVTVPLFDKVTFNLNGRPFTIVKKGSGKKIIDITYDGKKIDGYFITHDQLREGKELVITTE,failed
4,MKQPLRVLISCRPEENSGGKRSEQNDAVFEFAAWLARTSDINVRGITTFIRPWPSSSISKLGGKYHKWYKNLDSYYRSRTIKGLKEAGVEKSQWDDDVSVFVDGPSESTLLTHAAEEFEADLILLGSDATAPKGRFLASSTADALLHSSPVPLGLVPRGVKLSKKGVTRVNYAFTNESDDFEQGLRSSAELATNWNVPLRILAFSPTGITSAPTSRSLDISTELSSEWRELTLAMLDRARDGVLTDHPNLSVSSETGSGWGWSGAIDALRWKKGDLLCMGSHRTDTLSRVFVGSETMEIIRNSPVPTIIYPGL,failed
5,MKQPTLAVIMTCHNRRNTTLACLQALYQQKNHFDVYLTDDGSTDGTAEFIKAEYPDVKIFQGDGNLFWVGGMHLAFGEAIKNQYDYYLWLNDDTFLEADALEKLLQVHENLAVEGYGQSIVVGSTQDPITKQATYGGAVKSKKWYSNKFEFLEPTSDVQKCDAMYGNCVLIPHSVTLKVGNIDTAFIHSLGDLDYALRARNLGCHVWVAPGYIGTCNKNSVRNSWVDTKLPVLERLRKILQIKGFPLKPWTTFCSRHSGPFWIFYWFLPYIRAIIGYKNLATSPTFSEDPKETKPEV,failed
6,MKREEYLKNYLESYLRKKEVSLTEEEFNVILREFLRFAYNPEESGQEIADTADGSKTLIHKTYGEPYHSQTAGAIRESLYKFVRPSRILEKAKERKVIRILDVGFGLGYNLAVALKHLWEVNPKLRVEIISFEKELLKEFPILPEPYREIHEFLLERVPEYEGERLSLKVLLGDARKRIKEVENFKADAVFHDAFSPYKNPELWTLDFLSLIKERIDEKGYWVSYSSSLSVRKSLLTLGFKVGSSREIGRKRKGTVASLKAPVPPMEENEVRKLVLSPFAVPMRDEKLDKEPLEILIDYLLKVYKISR,not failed
7,MKRFAFRVILHILLIVLFSIGSYLLFQKQLWFSTTICLILLITIGIHLYRMQFKQIALLRRLTDGLRYNDMMQTFHPPFNNKIMNEWAEELSDTLKDFRGRLLAEEIKHQYYENLLNKVDTAVLVADKAGHIEWMNQAAVTHLGQISQLPETLLKASVAHDTPVIRIEQNSTVLEMAISRTTFATQGREQQLISLKNIHSVLERNEMEAWQKLIRVLTHEIMNSITPIISLSETLSERGIPSQLGEKEYSVMLQAMQTIHRRSKGLLEFVENYRRLTRIPAPIRTQISIAELFTDLKKLFPEEEFQFEVPSPELKLNVDRTQIEQILINLLKNAREACSRKSDKKIQVKARKLSAGNTTLTISDNGEGILPDVLDKIFVPFFTTKTSGSGIGLSLCKQIMTLHEGSINVKSEVGKGSSFILTFPK,failed
8,MKRFVLLDTTAIPENGGALCLFEYGEDFVIKIQGGDGGQLMNTRMHGSEDALAQIPCSKVAGRPNSRVLIGGLGMGFTLAAALKHLGKSAKVVVAELVPGVVEWNRGPLGEKSGRPLLDPRTVIRLEDVAKVLQAEPQGFDAIMLDVDNGPEGLTQKANSWLYSSAGLAACARALRPKGILAVWSASADRQFSERLRKAGFKAEEVQVFAHGNRGTRHTIWIAEKLKA,failed
9,MKRIAFVGSVGAGKTTLFNALQGNYTLARKTLAVEFNDKGDIDTPGEYFSHPRWYHALITTLQDVDMLIYVHGANDPESRLPAGLLDIGVSKRQIAVISKTDMPDADVAATRKLLLETGFEEPIFELNSHDPQSVQQLVDYLASLTKQEEAGEKTHHSELEHHHHHH,not failed
10,MKRIKTRAITLLALCIALNIVGSNIALMLKLPIYLDSIGTVLAAAVFGPLGGMLAGGATGVIVGATTDLYSLFFMPVQLLTGLVAGLLYRRIKPGTWRSNWWLAGVISLPGTLLSTAITVILFHGITSSGSSMLVQLLLGTGMGKTMAVFLIQVGTDYLDRFITVYVVALVYRALRYKLPQAN,failed
11,MKRKGVGFSLPVTVVMLVIGFIYFASVFTFIDRWFSLTSSPGIANAAAFTALALMCIYNYSIAVFRDPGRVPLNYMPDVEDPESPVHEIKRKGGDLRYCQKCSHFKPPRAHHCRVCKRCVLRMDHHCIWINNCVGHTNYKVFFVFVVYAVTACVYSLVLLVGSLTVEPQDEEEEMGSYLRTIYVISAFLLIPLSIALGVLLGWHIYLILQNKTTIEVYHEGVRAMWLAEKGGQVYKHPYDIGAYENLTLILGPNILSWLCPTSRHIGSGVRFRTAFDSIPDSSETKH,failed
12,MKRKLIYLFIALAATILPAHAQKFLNDALTLSNVSLWQQGNSLYVGMTVDMANLTIGSARSLSLIPLLTDGQHNVPLQEIIVNGKRREKAYLRGLAISKQESTAIIVPYNKRETFNYTQVIPYQPWMANASLQLVENLCGCGNYQEMNAQELITNDVSTEAKRLSAMSPIVAYIQPTVEVVKNRSEQYEAHLDFPVNKSVILTDFMNNHSELVNIHSMFDKIQNDKNLTVQSISIEGFASPEGPLAFNEQLSKKRAEALKDYLVKNEKASAKLYKVTFGGENWDGLVKALESSSMKDKETFLNIIKNTTNDVKRKQEIMKVGGGAPYRTMLKEIYPGLRKVNCKIDYTVVNFDVEQGRIIIRENPKYLSLNEMYQVANSYPKGSKDFVDVFDIAVRMYPTDAVANLNAAAVALSQKDINTALKYMEKADHTTAEFLNNTGVYNFLNGDIQRATAAFEQAAKLGNEAAQANLKQLQQIMNMKMSK,failed
13,MKRKSLKSFIYVSALLVFLSGFVGVSLFVKSEVVEATTIGDDYPVKWKNLPLGGAIDDWRMYTRYCTSFVAYRLSTANNFELPSGFGNADRWGTEAMARGYKVDKNPKVGSVAWWTSTHVAWVAEVSGDNVKVEEYNYGFDGKYNTRWINKNSANGYIHFKDMPQTPVGWYNNGHYDYYYYADGTKAIGLTWVGTKRYNFDKNGAMYKNAWTNSDKYSYYSTSDGSLAVGLTWVGTKRYNFDKNGAMYKNAWTNSDKYSYYSTSDGSLAVGLTWVGTKRYNFDKNGAMYKNAWTNSDKYSYYSTSDGSLAVGHQQIGENKYIFDKNGALYKNMWVDLDGNRYYSKEDGALAIGEQIIDGITYMFDESGKLVNNLEHHHHHH,not failed
14,MKRKTIRILLISSGLILILLVGYRLYLEYQTDIQLFLNPKASKTQLLERIRSHGFSAALLLVFLTAIMCAVPGIPTSVIGVIAGLSFGPFSGTLINVLGNSMGNLVAIFLMHHIKFLDKKTETNHWVQSIRRMKHPKIGIMVGYMIPIIPSSVINFAADTMQLPLKNLIAAIFIGVIPSSILYACGGEALFHGYNKTAVLLIVSVLLFVGLVVIIEKDRKRFQKTVL,failed
15,MKRLIGLVIVALVLLAACGSNNDKKVTIGVASNDTKAWEKVKELAKKDDIDVEIKHFSDYNLPNKALNDGDIDMNAFQHFAFLDQYKKAHKGTKISALSTTVLAPLGIYSDKIKDVKKVKDGAKVVIPNDVSNQARALKLLEAAGLIKLKKDFGLAGTVKDITSNPKHLKITAVDAQQTARALSDVDIAVINNGVATKAGKDPKNDPIFLEKSNSDAVKPYINIVAVNDKDLDNKTYAKIVELYHSKEAQKALQEDVKDGEKPVNLSKDEIKAIETSLAK,not failed
16,MKRLILPIACGICTVTSDAQTDKQPHPNVIFIYADDLGYKDLSCTGSRFYETPHIDKLAREGVCFTQSYAACPVSSPSRAALLTGKYPARINLTDYIPGDRAYGPHKNQRLASLPFNLHLSKDEITMAEAFRQNGYSTFMAGKWHLAESAEYYPEQNGFDINIGGNNTGHPSKGYFSPYGNPQLKDGPEGEYLTDRLTDEVIRYISEPKEKPFFVYLSYYTVHLPLQAKAEKIAKYRRKLSRAVPADSSFVKKGETYHKLVQDIPAYAAMVESLDENIGRLLDTLHRSGLDERTIVVFTSDNGGMATSNTTRNIPTSNLPLRAGKGYLYEGGIKVPAIIRWSGHLKGRQVSDTPIIGTDYYPTLLDLCGLPLLPGQHVDGVSMKPVLQGGRLSRPSLFWHYPHYSGGLGGRPSAAIREGDYKLIEFFEDHHVELYNVIQDESEEKDLSQIYPEIADGLRKKLYLWYKEVGARMPVDNPHYVSPVKDSDSFENKLEHHHHHH,failed
17,MKRLSTLCLLAAGFFIPGQAHQARPTVLDSVYAPLKVATPPSDAYIGLSLLDNGEIRHYNYGEQAVAGTVYLSSTDHGLTWKRVNRPKEMPFADCQSPVSKEYIRLVDMGAMGVYCIRTSGGLTGGRTLTKVADRNSIMIKPPVFIRNGKRIVVAAHGGVTPKGCYTYFSDDDGLTWKCSNTVTSPDHQGGGFHKGIRWNHGAVEPTVVELKDGTLWMLMRTSQDFHYQAFSKDGGQTWGESEPSPFYGTITMPTLGRLADGRLLLFWCNTTPLPEKEGTDGVWDDVFTNRDVTHVAVSDDDGKTWKGFRELYMDPMRNDIDYAVHGGGIDRGVHQAQFVEVAPGKVLASIGQHPLHRAMMMFDVNWLYEKSRFNDFTDSLSQWSTFNYMNGIKGHCAYNRIQGCMLEPHPRKEGRQVLHLTYRPDASLVADTRGAVWNFPAMKKGTFTVSLRIPEGSHSVSLLLNDRWMNPSDTVARYQSMYELPLTRKQLGVKDDRWHEVSLEWDLLQKRPQARVWVDGRLRPLRLPLKNKSQNGISYVHFIAPPAEANPGVYLEWVRAEADGAI,failed
